B1: SOX17.S403I7 mimic peptide VMSDAISAL (peptide)
peptide: VMSDAISAL
notes: also called M124; SOX17.S40317
B2: SOX17_S403I6 mimic peptide VLSDAISAL (peptide)
peptide: VLSDAISAL
notes: also called M123; SOX17_S40316
B3: SOX17.S403I mutant peptide VVSDAISAV (peptide)
peptide: VVSDAISAV
notes: also called M120; SOX17.S4031
B4: SOX17_S403I3 mimic peptide VMSDAISAV (peptide)
peptide: VMSDAISAV
notes: also called M122; SOX17_S40313
B5: CIC_R215W7 mimic peptide MMFSKRHWV (peptide)
peptide: MMFSKRHWV
notes: also called M013
B6: CIC_R215W6 mimic peptide MLFSKRHWV (peptide)
peptide: MLFSKRHWV
notes: also called M012
B7: CIC_R215W15 mimic peptide MMFSKRHWI (peptide)
peptide: MMFSKRHWI
notes: also called M011
B8: ERBB2_V842I5 mimic peptide RLIHRDLAV (peptide)
peptide: RLIHRDLAV
notes: also called M242
B9: ERBB2_V842I10 mimic peptide RMIHRDLAL (peptide)
peptide: RMIHRDLAL
notes: also called M241; ERBB2_V842110
B10: ERBB2_V842I6 mimic peptide RMIHRDLAV (peptide)
peptide: RMIHRDLAV
notes: also called M243; ERBB2_V84216
B11: CIC.R215W mutant peptide MIFSKRHWA (peptide)
peptide: MIFSKRHWA
notes: also called M010
B12: TP53.C141Y12 mimic peptide KLYPVQLWI (peptide)
peptide: KLYPVQLWI
notes: also called M134
B13: TP53_C141Y3 mimic peptide KMYPVQLWV (peptide)
peptide: KMYPVQLWV
notes: also called M132
B14: TP53_H193L5 mimic peptide GLAPPQLLV (peptide)
peptide: GLAPPQLLV
notes: also called M141
B15: TP53.H193Y mutant peptide GLAPPQYLI (peptide)
peptide: GLAPPQYLI
notes: also called M150
B16: TP53_H193L6 mimic peptide GMAPPQLLV (peptide)
peptide: GMAPPQLLV
notes: also called M142
B17: TP53_H193Y5 mimic peptide GLAPPQYLV (peptide)
peptide: GLAPPQYLV
notes: also called M151
B18: TP53.H193L mutant peptide GLAPPQLLI (peptide)
peptide: GLAPPQLLI
notes: also called M140
B19: TP53_H193Y6 mimic peptide GMAPPQYLV (peptide)
peptide: GMAPPQYLV
notes: also called M152
B20: SF3B1_R625H5 mimic peptide NMDEYVHNV (peptide)
peptide: NMDEYVHNV
notes: also called M111
B21: SF3B1.R625H mutant peptide NMDEYVHNT (peptide)
peptide: NMDEYVHNT
notes: also called M110
B22: SF3B1.R625H13 mimic peptide NMDEYVHNI (peptide)
peptide: NMDEYVHNI
notes: also called M115
B23: SF3B1_R625H6 mimic peptide NLDEYVHNV (peptide)
peptide: NLDEYVHNV
notes: also called M112
B24: SF3B1.R625H14 mimic peptide NLDEYVHNI (peptide)
peptide: NLDEYVHNI
notes: also called M116
B25: SF3B1.R625H10 mimic peptide NLDEYVHNL (peptide)
peptide: NLDEYVHNL
notes: also called M114
B26: PIK3CA_G118D5 mimic peptide ILNREIDFV (peptide)
peptide: ILNREIDFV
notes: also called M091
B27: PIK3CA_G118D6 mimic peptide IMNREIDFV (peptide)
peptide: IMNREIDFV
notes: also called M092
B28: PIK3CA_G118D9 mimic peptide ILNREIDFL (peptide)
peptide: ILNREIDFL
notes: also called M093
B29: CTNNB1.S37F10 mimic peptide YMDSGIHFL (peptide)
peptide: YMDSGIHFL
notes: also called M035
B30: CTNNB1_S37F5 mimic peptide YLDSGIHFV (peptide)
peptide: YLDSGIHFV
notes: also called M032
B31: CTNNB1_S37F14 mimic peptide YMDSGIHFI (peptide)
peptide: YMDSGIHFI
notes: also called M031
B32: TP53_K132N6 mimic peptide AMNNMFCQV (peptide)
peptide: AMNNMFCQV
notes: also called M162
B33: CTNNB1.S33C9 mimic peptide YLDCGIHSL (peptide)
peptide: YLDCGIHSL
notes: also called M034
B34: CTNNB1_S33C6 mimic peptide YMDCGIHSV (peptide)
peptide: YMDCGIHSV
notes: also called M023
B35: CTNNB1_S33C10 mimic peptide YMDCGIHSL (peptide)
peptide: YMDCGIHSL
notes: also called M021
B36: TP53_S127F11 mimic peptide SMTCTYFPL (peptide)
peptide: SMTCTYFPL
notes: also called M211
B37: TP53_P152L3 mimic peptide QLWVDSTPI (peptide)
peptide: QLWVDSTPI
notes: also called M181
B38: TP53_P152L4 mimic peptide QLWVDSTPV (peptide)
peptide: QLWVDSTPV
notes: also called M182
B39: KRAS.G12A mutant peptide LVVVGAAGV (peptide)
peptide: LVVVGAAGV
notes: also called M050
B40: KRAS_G12A3 mimic peptide LMVVGAAGV (peptide)
peptide: LMVVGAAGV
notes: also called M052
B41: KRAS_G12V3 mimic peptide LMVVGAVGV (peptide)
peptide: LMVVGAVGV
notes: also called M072
B42: KRAS_G12C2 mimic peptide LLVVGACGV (peptide)
peptide: LLVVGACGV
notes: also called M061
B43: KRAS_G12V2 mimic peptide LLVVGAVGV (peptide)
peptide: LLVVGAVGV
notes: also called M071
B44: PIK3CA_E453K5 mimic peptide GLKDLLNPV (peptide)
peptide: GLKDLLNPV
notes: also called M081
B45: PIK3CA_E453K6 mimic peptide GMKDLLNPV (peptide)
peptide: GMKDLLNPV
notes: also called M082
B46: TP53_V272M2 mimic peptide LLGRNSFEL (peptide)
peptide: LLGRNSFEL
notes: also called M221
B47: TP53_V272M3 mimic peptide LLGRNSFEI (peptide)
peptide: LLGRNSFEI
notes: also called M222
B48: PTEN R173C6 mimic peptide CYLYYYSYLV (peptide)
peptide: CYLYYYSYLV
notes: also called M102
B49: PTEN.R173C10 mimic peptide CYLYYYSYLI (peptide)
peptide: CYLYYYSYLI
notes: also called M105
B50: PTEN.R173C11 mimic peptide CYMYYYSYLI (peptide)
peptide: CYMYYYSYLI
notes: also called M106
B51: PTEN.R173C3 mimic peptide CYMYYYSYLL (peptide)
peptide: CYMYYYSYLL
notes: also called M104

Target: T1, HLA-A*02:01 class I complex (conditional p*HLA*02:01, biotinylated heavy chain with beta2-microglobulin) (human, biotinylated heavy chain)
T1 construct: UV-labile peptide p* is cleaved and exchanged for the test peptide; also called HLA 2.1
Assay: UV peptide exchange, HLA class I ELISA, % of Pos peptide;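 for Average %: Streptavidin-captured HLA complexes after exchange detected via HRP anti-human B2M antibody, absorbance read, colour scales with intact complex, normalized to exchange control peptide as 100%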;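 for Exch I (%): Streptavidin-captured HLA complexes after exchange detected via HRP anti-human B2M antibody, absorbance read, colour scales with intact complex, normalized to exchange control peptide as 100%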;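 for Exch II (%): Streptavidin-captured HLA complexes after exchange detected via HRP anti-human B2M antibody, absorbance read, colour scales with intact complex, normalized to exchange control peptide as 100%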
Source text: (§1) The HLA class I ELISA is an enzyme immunoassay based on the detection of beta2-microglobulin (B2M) of (peptide-stabilized) HLA class I complexes. To this end streptavidin is bound onto polystyrene microtiter wells. After washing and blocking, HLA complex present in exchange reaction mixtures or ELISA controls is captured by the streptavidin on the microtiter plate via its biotinylated heavy chain. Non-bound material is removed by washing. Subsequently, horseradish peroxidase (HRP)-conjugated antibody to human B2M is added. […] In the latter case B2M is removed during the washing step. After removal of non-bound HRP conjugate by washing, a substrate solution is added to the wells. A colored product is formed in proportion to the amount of intact HLA complex present in the samples. After the reaction has been terminated by the addition of a stop solution, absorbance is measured in a microtiter plate reader. The absorbance is normalized to the absorbance of an exchange control peptide (represents 100%). Also, suboptimal HLA binding of peptides with a moderate to low affinity for HLA class I molecules can be detected by this ELISA technique
(§2) Coating wells of two NUNC MaxiSorp™ 96-well ELISA plates: only the contents of one coating buffer capsule were dissolved in 100 mL of distilled water (0.05 M carbonate-bicarbonate buffer, pH 9.6 at 25° C.). 46 μL of Streptavidin stock solution were added to 23 mL coating buffer. 100 μL of the Streptavidin stock solution were added to all wells. Each microtiter plate was covered with an adhesive seal and incubated overnight at room temperature (18-25° C.).

Row | Binder | Average % [%] | Exch I (%) | Exch II (%)
1 | B1 | 77.4 | 75.3 | 79.5
2 | B2 | 87.3 | 91.9 | 82.6
3 | B3 | 86.2 | 88.5 | 83.8
4 | B4 | 92.4 | 96.9 | 87.9
5 | B5 | 74.4 | 76.2 | 72.6
6 | B6 | 74.3 | 74.8 | 73.8
7 | B7 | 42.8 | 40.4 | 45.3
8 | B8 | 73.6 | 69.9 | 77.3
9 | B9 | 53.7 | 51.5 | 55.8
10 | B10 | 57.6 | 56.7 | 58.5
11 | B11 | 6.2 | 6.2 | 6.1
12 | B12 | 73.9 | 81.3 | 66.4
13 | B13 | 76.9 | 72.7 | 81
14 | B14 | 42.2 | 40.3 | 44.1
15 | B15 | 13.3 | 13.5 | 13.1
16 | B16 | 13.9 | 13.9 | 13.9
17 | B17 | 48.2 | 48.8 | 47.6
18 | B18 | 8.2 | 9.2 | 7.2
19 | B19 | 21.4 | 22.5 | 20.3
20 | B20 | 83.6 | 86.6 | 80.6
21 | B21 | 8.3 | 9.2 | 7.3
22 | B22 | 68.4 | 73.6 | 63.1
23 | B23 | 88.2 | 88.1 | 88.4
24 | B24 | 70.1 | 71.1 | 69
25 | B25 | 55.1 | 57.2 | 53
26 | B26 | 70.4 | 62.1 | 78.7

Row | Binder | Average % [%] | Exch I (%) | Exch II (%)
27 | B27 | 66.7 | 68.6 | 64.9
28 | B28 | 56.2 | 51.1 | 61.3
29 | B29 | 105 | 102 | 108
30 | B30 | 104 | 99.3 | 109
31 | B31 | 107 | 97.6 | 116
32 | B32 | 70.1 | 69.4 | 70.8
33 | B33 | 107 | 103 | 111
34 | B34 | 108 | 101 | 115
35 | B35 | 106 | 108 | 103
36 | B36 | 53.5 | 56.4 | 50.6
37 | B37 | 67.9 | 62 | 73.8
38 | B38 | 95.7 | 95.6 | 95.7
39 | B39 | 6.4 | 6.6 | 6.2
40 | B40 | 51.3 | 51 | 51.5
41 | B41 | 36.1 | 39 | 33.3
42 | B42 | 34.8 | 36.4 | 33.1
43 | B43 | 35.9 | 31.8 | 40.1
44 | B44 | 74.9 | 73.5 | 76.3
45 | B45 | 77.5 | 74.7 | 80.4
46 | B46 | 98.4 | 101 | 95.7
47 | B47 | 66.7 | 75.3 | 58
48 | B48 | 10.7 | 10.4 | 10.9
49 | B49 | 23.3 | 27.8 | 18.9
50 | B50 | 4.9 | 4.9 | 4.8
51 | B51 | 8.5 | 8.3 | 8.7

Target: T1, HLA-A*02:01 class I complex …
Assay: as above
Remark: another data set of the same source
Source text: as §1, §2

Row | Binder | average relative binding (%)
52 | B11 | < 15
53 | B15 | < 15
54 | B16 | < 15
55 | B18 | < 15
56 | B21 | < 15
57 | B29 | > 100
58 | B30 | > 100
59 | B31 | > 100
60 | B33 | > 100
61 | B34 | > 100
62 | B35 | > 100
63 | B39 | < 15
64 | B48 | < 15
65 | B50 | < 15
66 | B51 | < 15

Source: US20220194999A1 (Janssen / Centocor, published 2022)
